Experimental data published in publication PMC7360481.

Molecular target: Sox2 (Mus musculus, UniProt P48432 1-319)
Test: EMSA

Chain of Sox2 (P48432 whole entry): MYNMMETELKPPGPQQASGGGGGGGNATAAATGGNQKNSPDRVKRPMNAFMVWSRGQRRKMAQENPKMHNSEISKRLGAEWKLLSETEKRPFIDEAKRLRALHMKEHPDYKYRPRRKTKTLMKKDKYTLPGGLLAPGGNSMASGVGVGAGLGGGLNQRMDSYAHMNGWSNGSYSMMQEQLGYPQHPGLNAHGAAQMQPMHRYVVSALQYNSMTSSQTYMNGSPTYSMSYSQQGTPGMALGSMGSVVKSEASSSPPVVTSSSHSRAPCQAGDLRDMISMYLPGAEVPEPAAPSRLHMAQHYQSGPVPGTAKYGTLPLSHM

B1: RNA/DNA hybrid (DNA:RNA)
RNA: CCUACUACCUGUGCCUUUAAGUACCUUUUCUGUCUUCUA
DNA: TAGAAGACAGAAAAGGTACTCTAAAGGCACAGGTAGTAGG
- binding result: no binding
